Assay results from US20130079246A1 (ADDEX PHARMA SA, priority 2010, published 2013).

Tests used:
[1] = biological target: T1, chimeric TNFR1-PDGFR receptor (full length human TNFR1 fused to cytoplasmic domain of mouse PDGFR) (Homo sapiens, UniProt P19438); experiment: Ca2+-dependent aequorin luminescence in HEK293T Aequorin cells expressing the chimeric receptor (HTS setting); assay type: cell-based
T1 construct: 1, 2; full length; cytoplasmic domain (cp); expressed in transfected cells; host or cells: HEK293T cells stably expressing apoaequorin
T1 sequence (P19438 with tags, fused parts or gaps): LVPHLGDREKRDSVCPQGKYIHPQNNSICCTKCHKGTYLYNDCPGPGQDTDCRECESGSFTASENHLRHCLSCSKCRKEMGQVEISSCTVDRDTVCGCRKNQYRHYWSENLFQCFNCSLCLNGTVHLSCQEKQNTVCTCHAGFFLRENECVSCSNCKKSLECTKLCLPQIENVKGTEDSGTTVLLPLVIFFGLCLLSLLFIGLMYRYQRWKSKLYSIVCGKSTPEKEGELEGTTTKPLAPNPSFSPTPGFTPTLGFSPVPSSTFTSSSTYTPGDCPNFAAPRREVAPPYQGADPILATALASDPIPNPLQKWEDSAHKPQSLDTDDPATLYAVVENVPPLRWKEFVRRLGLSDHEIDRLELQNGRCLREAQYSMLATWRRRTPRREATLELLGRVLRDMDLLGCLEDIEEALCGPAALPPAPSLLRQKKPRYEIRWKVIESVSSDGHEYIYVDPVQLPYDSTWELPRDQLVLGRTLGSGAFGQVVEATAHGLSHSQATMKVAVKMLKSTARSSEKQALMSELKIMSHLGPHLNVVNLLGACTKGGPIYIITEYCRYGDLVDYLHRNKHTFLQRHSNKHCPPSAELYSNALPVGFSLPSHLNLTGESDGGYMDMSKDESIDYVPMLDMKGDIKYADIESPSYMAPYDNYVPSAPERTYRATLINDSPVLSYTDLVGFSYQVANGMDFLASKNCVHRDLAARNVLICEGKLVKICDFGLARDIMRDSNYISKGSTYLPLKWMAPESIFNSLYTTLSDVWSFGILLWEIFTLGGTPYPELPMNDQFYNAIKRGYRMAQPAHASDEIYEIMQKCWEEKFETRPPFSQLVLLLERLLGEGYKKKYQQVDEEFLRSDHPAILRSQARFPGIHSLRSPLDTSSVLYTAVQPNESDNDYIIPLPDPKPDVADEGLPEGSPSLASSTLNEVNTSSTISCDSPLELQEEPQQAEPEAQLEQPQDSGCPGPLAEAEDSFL
Text: HEK293T stably expressing Apoaequorin were generated using standard cloning techniques. The HEK293T cells expressing Apoaequorin (“Aequorin cells”) were then further transfected as described in Examples 1-3 so as to express the chimeric receptors 1-3 as listed in Table 3.
In particular, the HEK293T Apoaequorin cells were transfected with pcDNA3.1 hygro TNFR1-fl-PDGFR-cd vector as prepared in Example 1 using Optifect™ Transfection Reagent (Invitrogen), according to the manufacturer's protocol.
HEK293T cells expressing Apoaequorin and the chimeric receptor (Example 4) were plated in 384-well plates at a concentration of 12500 cells per well in a final volume of 50 μl. […] A FDSS7000 reader from Hamamatsu (Japan) was used to examine intracellular calcium levels. […] The instrument features include detection with a camera of fluorescence or luminescence and automatically converts fluorescence or luminescence signals into numeric data. This digital data is then used to determine the concentration of calcium inside the analyzed cells. The information is automatically analyzed in terms of a positive, negative or null effect of each test compound being examined. This system allowed differences between untreated and treated cells to be measured, for example by measuring the calcium flux in cells. […]

[2] = biological target: chimeric receptor: full length human TNFR1 fused to the cytoplasmic tyrosine kinase domain of mouse PDGFR (human TNFR1; mouse PDGFR); experiment: cell-based or functional assay
chimeric receptor: full length human TNFR1 fused to the cytoplasmic tyrosine kinase domain of mouse PDGFR (human TNFR1; mouse PDGFR), sequence (chain, as listed by the source mutant limits assumed): as the sequence (P19438 with tags, fused parts or gaps) above

TNF (ligand), sequence (P01375 77-233): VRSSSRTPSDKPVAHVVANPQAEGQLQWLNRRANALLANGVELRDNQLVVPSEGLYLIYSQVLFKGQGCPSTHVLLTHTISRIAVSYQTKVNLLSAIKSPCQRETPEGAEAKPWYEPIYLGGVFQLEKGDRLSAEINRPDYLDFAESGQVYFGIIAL

Inhibitory efficacy, dose response compared with cells expressing full-length PDGFR ([1]; inhibitor 3 μM to 0.45 nM, cells exposed to TNF, FIG. 6)	EC50, Ca2+-dependent aequorin luminescence, AUC over 10 minutes [2]	EC50, Ca2+-dependent aequorin luminescence, Max-Min [2]	EC80, Ca2+-dependent aequorin luminescence, AUC over 10 minutes [2]	EC80, Ca2+-dependent aequorin luminescence, Max-Min [2]	Molecule	Effect on TNF-dependent intracellular calcium increase ([1]; 1 μM inhibitor, 3 ng/ml TNF, FIG. 5b)
equal inhibitory efficacy	–	–	–	–	COc1cc2ncnc(N3CCN(C(=O)Nc4ccc(Oc5ccccc5)cc4)CC3)c2cc1OC [PDGFR Tyrosine Kinase Inhibitor III, 4-(6,7-Dimethoxy-4-quinazolinyl)-N-(4-phenoxyphenyl)-1-piperazinecarboxamide]	prevented the detection of intracellular calcium increase
–	1.27 ng/mL	1.06 ng/mL	2.9 ng/mL	3 ng/mL	TNF (ligand)	–
